What was measured:
[1] = test system: Cdc25C-NLuc/CLuc-14-3-3ε LCI pair; assay: LCI of Cdc25C/14-3-3ε interaction in HEK-293 cells; assay type: cell-based, human; settings: UCN-01 1 μM, 6 hrs
Procedure: HEK-293 cells transfected with Cdc25C-NLuc/CLuc-14-3-3ε or mutant S216A Cdc25C-NLuc/CLuc-14-3-3ε were treated with vehicle alone or UCN-01 (1 μM) for 6 hrs prior to LCI. Data are expressed as percent of bioluminescence relative to untreated Cdc25C-NLuc/CLuc-14-3-3ε in cells and represent the mean±SEM of three independent experiments, n=4 each.
To replace the FRB with human Cdc25C or human p91 STAT1 (J. E. Darnell Jr., The Rockefeller University, 1230 York Avenue, NY, N.Y. 10021, USA.) in the NLuc fusion vector, open reading frames of these cDNAs were amplified by PCR using 5′ primers containing a BamHI site and Kozak consensus sequence upstream of the start site and 3′ primers which reconstituted the linker region up to the BsiWI site. FRB was replaced using the BamHI and BsiWI sites. FKBP was similarly replaced with 14-3-3ε or STAT1 using BsiWI at the 3′ end and EcoRV at the 5′ end.
Cells (1×10^4/well in 100 μl media) were transferred to 96-well black walled plates 16-24 hrs after transfection. At the times indicated, growth media was replaced with media containing appropriate drugs or vehicles. To image live cells, D-luciferin (10 μl of 1.5 mg/ml in PBS) was added to wells. Photon flux for each well was measured 8-10 min after addition of D-luciferin with an IVIS CCD camera (1 min exposure, f-stop=1, binning 8, FOV 15 cm). […]

[2] = test system: phosphorylation of Cdc25C-NLuc on S216; assay: Western blot of phospho-S216 Cdc25C-NLuc in HEK-293 cells; assay type: cell-based, human; settings: UCN-01 1 μM, 6 hrs
Procedure: Cells were left untreated or treated with UCN-01 (1 μM) for 6 hrs prior to lysis, processed for Western analysis and then probed with the antibodies indicated to visualize expression, phosphorylation, and the effect of UCN-01 on the LCI constructs.
Cells (3×10^6/10 cm dish) were transfected with the indicated plasmids (6 μg each). Media was removed 6 hrs prior to lysis and replaced with media containing UCN-01 at the concentrations indicated. Cells were washed with PBS and lysed by incubation for 30 min at 4° C. with 1 ml RIPA buffer containing protease inhibitors (50 mM tris-HCl, pH 7.4, 1% NP-40, 0.25% deoxycholic acid, 150 mM NaCl, 1 mM EDTA, 1 mM each PMSF, sodium orthovanadate, and NaF, 1 μg/ml each leupeptin, aprotinin, pepstatin). After centrifugation to remove insoluble material, protein concentration was determined by BCA (Pierce Biotechnology, Inc., Customer Service Department, P.O. Box 117, Rockford, Ill. 61105 U.S.A). The Bicinchoninic Acid (BCA) test to determine protein concentration is a highly sensitive alternate assay to the Lowry assay.
Proteins (200 μg) were separated by SDS-PAGE and analyzed using polyclonal primary antibodies against pGL3 luciferase (Promega US, 2800 Woods Hollow Road, Madison Wis. 53711, USA) or phospho-S216-Cdc25C (Santa Cruz Biotechnologies, 2145 Delaware Avenue, Santa Cruz, Calif. 95060, U.S.A.). […]

[3] = target: FRB domain of human mTOR / FKBP-12 (FRB-NLuc/CLuc-FKBP LCI pair) (Homo sapiens, UniProt P42345+P62942); assay: Luciferase complementation imaging (LCI) of rapamycin-induced FRB/FKBP association in live HEK-293 cells; assay type: cell-based; settings: HEK293, read-out: EC90 of rapamycin; HEK-293 cells transfected with FRB-NLuc/CLuc-FKBP
Procedure: Data, expressed as mean photon flux±SEM of quadruplicate wells, are representative of three independent tests.
HEK-293 cells were cultured in Dulbecco's Modified Eagle Medium (DMEM), (Life Technologies, 2575 University Ave. W., St. Paul, Minn. 55114 USA) supplemented with 10% fetal calf serum (FCS), 1% glutamine, 0.1% P/S, 0.1% fungizone. Cells (3×10^6/10 cm dish or 1.5×10^5 per 35 mm dish) were transiently co-transfected with pairs of plasmids as indicated using FuGene-6 (Roche) according to the manufacturers directions.

[4] = test system: Y701F mutant STAT1 LCI pair; assay: Bioluminescence of nuclear extracts of cells expressing the Y701F mutant STAT1 LCI pair; assay type: cell-based, human; settings: IFN-γ 20 min, 100 U/ml, HEK-293
Procedure: (§1) HEK-293 cells were transiently transfected with STAT1-NLuc/CLuc-STAT1, the Y701F STAT1 mutant LCI pair, or intact luciferase. Forty-eight hours after transfection, cells were left untreated or treated with IFN-γ (1000 U/ml for 20 min) (n=3 for each) and then extracts prepared. To measure bioluminescence in extracts, an assay buffer including D-luciferin and ATP (Luciferase Assay Buffer, Promega, USA) was added to duplicate samples of each extract. Bars show the ratio +/−SEM of mean photon flux/μg protein for extracts of IFN-γ treated over untreated cells. […] Duplicate determinations are vertically arranged with independent extracts arrayed horizontally.
To confirm that phosphorylated STAT1 LCI pairs were biologically functional, the inventors measured the IFN-γ-inducible nuclear accumulation of bioluminescence activity. Cytoplasmic and nuclear extracts were prepared from untreated and IFN-γ-treated HEK-293 cells transiently co-transfected with the STAT1-NLuc/CLuc-STAT1 LCI pair, the Y701F mutant pair, or intact luciferase. […] Western blots of the cytoplasmic and nuclear extracts used in FIG. 16. confirmed purity of the extracts, neither fraction showing cross-contamination as assessed by the marker proteins β-tubulin (cytoplasm) and Topo II (nucleus), respectively (data not shown). […]

[5] = test system: STAT1-NLuc/CLuc-STAT1 LCI pair; assay: LCI of STAT1-NLuc/CLuc-STAT1 in intact transduced cells (HEK-293, 2ftgh, U3A); assay type: cell-based, human; settings: any time or any dose
Procedure: Each transduced cell line was sorted by FACS for expression of appropriate fluorescence markers (EGFP and mRFP) to enrich for cells carrying the imaging constructs. These enriched populations were seeded in a 96-well format (10^4 cells/well), and left untreated or treated with […] (1000 U/ml for 30 min). Bars represent the mean +/−SEM (n=4) for a representative test. Note the y-axis log scale.
The STAT1-NLuc and CLuc-STAT1 open reading frames were cloned into lentiviral vectors (gift of J. Milbrandt, Washington University in St. Louis, One Brookings Drive, St. Louis, Mo. 63130, USA ) downstream of a CMV promoter and upstream of an IRES linked to EGFP (Clontech) or mRFP (R. Tsien, UCSD), respectively.
Cells (1×10^4/well in 100 μl media) were transferred to 96-well black walled plates 16-24 hrs after transfection. At the times indicated, growth media was replaced with media containing appropriate drugs or vehicles. To image live cells, D-luciferin (10 μl of 1.5 mg/ml in PBS) was added to wells. Photon flux for each well was measured 8-10 min after addition of D-luciferin with an IVIS CCD camera (1 min exposure, f-stop=1, binning 8, FOV 15 cm). Cell lyastes used for imaging were prepared using Reporter Lysis Buffer (Promega US, 2800 Woods Hollow Road, Madison Wis. 53711, USA) according to the manufacturers directions.

[6] = test system: STAT1-NLuc/CLuc-STAT1 LCI pair (nuclear accumulation); assay: Bioluminescence of nuclear extracts of cells expressing STAT1-NLuc/CLuc-STAT1; assay type: cell-based, human
Procedure: as §1, with “Forty-eight hours after transfection, cells were left untreated or treated with IFN-γ (1000 U/ml for 20 min) (n=3 for each) and then extracts prepared.” left out
To confirm that phosphorylated STAT1 LCI pairs were biologically functional, the inventors measured the IFN-γ-inducible nuclear accumulation of bioluminescence activity. Cytoplasmic and nuclear extracts were prepared from untreated and IFN-γ-treated HEK-293 cells transiently co-transfected with the STAT1-NLuc/CLuc-STAT1 LCI pair, the Y701F mutant pair, or intact luciferase. […] Western blots of the cytoplasmic and nuclear extracts used in FIG. 16. confirmed purity of the extracts, neither fraction showing cross-contamination as assessed by the marker proteins β-tubulin (cytoplasm) and Topo II (nucleus), respectively (data not shown). Western blots also confirmed virtually identical expression levels of wild-type and Y701F mutant LCI pairs as well as appropriate phosphorylation of STAT1 proteins and reporters (data not shown).

[7] = test system: STAT1-NLuc, CLuc-STAT1, endogenous p91 and p84 STAT1 phosphorylation; assay: Western blot of Y701 phosphorylation of STAT1 reporters and endogenous STAT1 in HEK-293 cells; assay type: cell-based, human; settings: IFN-γ 1000 U/ml, 30 min
Procedure: Cells were left untreated or treated with IFN-γ (1000 U/ml) for 30 min prior to lysis, processed for Western analysis and then probed with the antibodies indicated to visualize expression and IFN-γ-induced phosphorylation of STAT1-NLuc (grey arrows), CLuc-STAT1 (black arrows), and endogenous p91 and p84 STAT1 (unfilled arrows). Intact luciferase expression (hatched arrow) is also shown. Note that while STAT1-NLuc could not be visualized using the STAT1 antibody, the fusion could be visualized with both Luc and phospho-STAT1 antibodies.

FRB domain of human mTOR / FKBP-12 (FRB-NLuc/CLuc-FKBP LCI pair), sequence (P42345 2024-2113): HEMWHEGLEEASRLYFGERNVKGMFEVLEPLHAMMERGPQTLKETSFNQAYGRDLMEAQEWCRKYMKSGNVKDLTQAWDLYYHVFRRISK
FRB domain of human mTOR / FKBP-12 (FRB-NLuc/CLuc-FKBP LCI pair), sequence (P62942 2-108): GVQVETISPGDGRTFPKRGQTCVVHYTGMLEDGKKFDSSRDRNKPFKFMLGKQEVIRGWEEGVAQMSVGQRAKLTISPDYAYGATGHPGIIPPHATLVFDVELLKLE

## CN[C@@H]1C[C@H]2O[C@@](C)([C@@H]1OC)n1c3ccccc3c3c4c(c5c6ccccc6n2c5c31)C(=O)N[C@@H]4O [UCN-01]
[1]
  effect on bioluminescence of Cdc25C-NLuc/CLuc-14-3-3ε: decreased bioluminescence
[2]
  effect on phosphorylation of Cdc25C-NLuc on S216: reduction in phosphorylation

## CO[C@H]1C[C@@H]2CC[C@@H](C)[C@@](O)(O2)C(=O)C(=O)N2CCCC[C@H]2C(=O)O[C@H]([C@H](C)C[C@@H]2CC[C@@H](O)[C@H](OC)C2)CC(=O)[C@H](C)/C=C(\C)[C@@H](O)[C@@H](OC)C(=O)[C@H](C)C[C@H](C)/C=C/C=C/C=C/1C [rapamycin]
[3]
  EC90: 80 nM

B1: IFN-γ: interferon-γ, activates JAK1-mediated phosphorylation of STAT1 on Y701 (protein, UniProt P01579 24-161, looked up)
Interferon gamma: QDPYVKEAENLKKYFNAGHSDVADNGTLFLGILKNWKEESDRKIMQSQIVSFYFKLFKNFKDDQSIQKSVETIKEDMNVKFFNSNKKKRDDFEKLTNYSVTDLNVQRKAIHELIQVMAELSPAAKTGKRKRSQMLFRG
[4]
  nuclear bioluminescence in extracts of cells with mutant STAT1 LCI pair: No such IFN-γ-induced increase
[5]
  effect on bioluminescence of co-transduced intact cells: failed to change bioluminescence
[6]; IFN-γ 20 min
  bioluminescence (photon flux/μg protein) in nuclear extracts of HEK-293 cells: specifically increased
[6]; IFN-γ 30 min, n=3
  increase in bioluminescence of nuclear extracts of U3A cells: 6 fold
[7]
  phosphorylation of STAT1-NLuc, CLuc-STAT1 and endogenous p91 and p84 STAT1: resulted in phosphorylation
